Source: EP1012244B1

Molecular target: HIV-1 strain IIIB envelope protein gp120/41 on the surface of HIV-1-infected Jurkat cells (HIV-1 strain IIIB) (UniProt P04578)
Assay: cell-based or functional assay

CXCR4 protein with an HA epitope tag (from UniProt P61073 1-352) (receptor)
percentage of HIV-1+ cells that were also infected with VSVΔG-CC4: 90 to 95%
